Key:
HeLa Tet3G cells [1] = assay: Cell proliferation assays: rescue of the proliferation defect induced by respiratory chain inhibitors (nuclei counting); assay type: cell-based, human; conditions: for rescue of piericidin induced proliferation defect by supplementation: HeLa Tet3G Luciferase cells, compound added to medium, 3 days
Experimental: Five hundred HeLa Tet3G NDI1, Luciferase, LbNOX or mitoLbNOX cells were seeded in 200 μl of DMEM (DMEM (US Biological, D9800), 3.7 g/L NaHCO3, 10% dialyzed FBS (Life Technologies, 26400-044)) per well in a black 96-well plate with clear bottom (Corning, 3904). Twenty four hours after seeding, media was exchanged to DMEM without pyruvate (DMEM (US Biological, D9802), 15.9 mg/L phenol red, 3.7 g/L NaHCO3, 10% dialyzed FBS (Life Technologies, 26400-044))±10 μg/ml chloramphenicol±30 ng/ml ethidium bromide±1 mM pyruvate±300 ng/ml doxycycline. After 0, 2, 3, 4, 5 and 6 days, media was aspirated and cells were fixed by adding 100 μl of 4% paraformaldehyde in PBS and incubating at room temperature for at least 30 min. Paraformaldehyde solution was aspirated and cells were stained with 200 μl of 1 μg/ml Hoechst 33345 in PBS. Plates were covered with sealing aluminum foil and stored at 4° C. before counting cells in each well with Molecular Dynamics IMAGEXPRESS® Ultra (see “Nuclei counting using Molecular Devices IMAGEXPRESS® Ultra,” below).
One thousand HeLa Tet3G NDI1, Luciferase, LbNOX or mitoLbNOX cells were seeded in 200 μl of DMEM (DMEM (US Biological, D9800), 3.7 g/L NaHCO3, 10% dialyzed FBS (Life Technologies, 26400-044)) per well in a black 96-well plate with clear bottom (Corning, 3904). Twenty four hours after seeding, 10 μl of 6 μg/ml doxycycline (300 ng/ml final concentration) or water was added to each well. Twenty four hours after addition of doxycycline, media was exchanged to DMEM without pyruvate (DMEM (US Biological, D9802), 15.9 mg/L phenol red, 3.7 g/L NaHCO3, 10% dialyzed FBS (Life Technologies, 26400-044)), ±1 μM piericidin, ±1 μM antimycin, ±1 mM pyruvate and ±300 ng/ml doxycycline. After 0, 1, 2, 3 and 4 days, media was aspirated and cells were fixed by adding 100 μl of 4% paraformaldehyde in PBS and incubating at room temperature for at least 30 min. Paraformaldehyde solution was aspirated and cells were stained with 200 μl of 1 μg/ml Hoechst 33345. Plates were covered with sealing aluminum foil and stored at 4° C. before counting cells in each well with Molecular Dynamics IMAGEXPRESS® Ultra (see “Nuclei counting using Molecular Devices IMAGEXPRESS® Ultra,” below).
Two thousand HeLa Tet3G Luciferase cells were seeded in 200 μl of DMEM (DMEM (US Biological, D9800), 3.7 g/L NaHCO3, 10% dialyzed FBS (Life Technologies, 26400-044)) per well in a black 96-well plate with clear bottom (Corning, 3904). Twenty four hours after seeding, media was exchanged to DMEM without pyruvate (DMEM (US Biological, D9802), 15.9 mg/L phenol red, 3.7 g/L NaHCO3, 10% dialyzed FBS (Life Technologies, 26400-044))±1 μM piericidin, ±indicated concentrations of pyruvate, lactate, malate, oxaloacetate, nicotinamide mononucleotide ([…]) or PJ34. After 3 days, media was aspirated and cells were fixed by adding 100 μl of 4% paraformaldehyde in PBS and incubating at room temperature for at least 30 min. Paraformaldehyde solution was aspirated and cells were stained with 200 μl of 1 μg/ml Hoechst 33345. Plates were covered with sealing aluminum foil and stored at 4° C. before counting cells in each well with Molecular Dynamics IMAGEXPRESS® Ultra (see “Nuclei counting using Molecular Devices IMAGEXPRESS® Ultra,” below).
Images of 96-well plates with fixed cells stained with Hoechst 33345 were collected using Molecular Devices IMAGEXPRESS® Micro XLS. Four images were taken to cover the whole well. Images were analyzed and nuclei number per well was counted using CellProfiler 2.0 image analysis software (Carpenter, et al., Genome Biol., 7:R100, 2006; and Kamentsky, et al., Bioinformatics, 27:1179, 2011). […]

HeLa Tet3G cells [2] = assay: Glucose concentration-dependent cell survival; assay type: cell-based, human; conditions: 1 μM piericidin, 24 hours
Experimental: Images of 96-well plates with fixed cells stained with Hoechst 33345 were collected using Molecular Devices IMAGEXPRESS® Micro XLS. Four images were taken to cover the whole well. Images were analyzed and nuclei number per well was counted using CellProfiler 2.0 image analysis software (Carpenter, et al., Genome Biol., 7:R100, 2006; and Kamentsky, et al., Bioinformatics, 27:1179, 2011).
Ten thousand HeLa Tet3G NDI1, Luciferase, LbNOX or mitoLbNOX cells were seeded in 200 μl of DMEM (DMEM (US Biological, D9800), 3.7 g/L NaHCO3, 10% dialyzed FBS (Life Technologies, 26400-044)) per well of a black 96-well plate with clear bottom (Corning, 3904). Twenty four hours after seeding, 10 μl of 6 μg/ml doxycycline (300 ng/ml final concentration) or water was added to each well. Twenty four hours after addition of doxycycline, media was exchanged to DMEM (DMEM (US Biological, D9800), 3.7 g/L NaHCO3, 10% dialyzed FBS (Life Technologies, 26400-044))±300 ng/ml doxycycline. […] After 24 hours, media was aspirated and cells were fixed by adding 100 μl of 4% paraformaldehyde in PBS and incubating at room temperature for at least 30 min. Paraformaldehyde solution was aspirated and cells were stained with 200 μl of 1 μg/ml Hoechst 33345. Plates were covered with sealing aluminum foil and stored at 4° C. before counting cells in each well with Molecular Dynamics IMAGEXPRESS® Ultra (see “Nuclei counting using Molecular Devices IMAGEXPRESS® Ultra,” above).

CN(C)CC(=O)Nc1ccc2[nH]c(=O)c3ccccc3c2c1 [PJ34, reference compound]
rescue of piericidin induced proliferation defect by supplementation (HeLa Tet3G cells [1]; 1 μM piericidin): did not rescue

NC(=O)c1ccc[n+]([C@@H]2O[C@H](COP(=O)([O-])O)[C@@H](O)[C@H]2O)c1 [PMN, nicotinamide mononucleotide, reference compound]
rescue of piericidin induced proliferation defect by supplementation (HeLa Tet3G cells [1]; 1 μM piericidin): did not rescue

CC(O)C(=O)O (stereo not drawn) [lactate, reference compound]
rescue of piericidin induced proliferation defect by supplementation (HeLa Tet3G cells [1]; 1 μM piericidin): do not

O=C(O)CC(O)C(=O)O (stereo not drawn) [malate, reference compound]
rescue of piericidin induced proliferation defect by supplementation (HeLa Tet3G cells [1]; 1 μM piericidin): do not

B1: Ndi1: yeast (S. cerevisiae) NADH dehydrogenase Ndi1 protein, positive control (protein, UniProt P32340 27-513, looked up)
Rotenone-insensitive …: STGVENSGAGPTSFKTMKVIDPQHSDKPNVLILGSGWGAISFLKHIDTKKYNVSIISPRSYFLFTPLLPSAPVGTVDEKSIIEPIVNFALKKKGNVTYYEAEATSINPDRNTVTIKSLSAVSQLYQPENHLGLHQAEPAEIKYDYLISAVGAEPNTFGIPGVTDYGHFLKEIPNSLEIRRTFAANLEKANLLPKGDPERRRLLSIVVVGGGPTGVEAAGELQDYVHQDLRKFLPALAEEVQIHLVEALPIVLNMFEKKLSSYAQSHLENTSIKVHLRTAVAKVEEKQLLAKTKHEDGKITEETIPYGTLIWATGNKARPVITDLFKKIPEQNSSKRGLAVNDFLQVKGSNNIFAIGDNAFAGLPPTAQVAHQEAEYLAKNFDKMAQIPNFQKNLSSRKDKIDLLFEENNFKPFKYNDLGALAYLGSERAIATIRSGKRTFYTGGGLMTFYLWRILYLSMILSARSRLKVFFDWIKLAFFKRDFFKGL
effect on decrease in cell number (cell survival) at low glucose concentrations in the presence of piericidin (HeLa Tet3G cells [2]): rescued | rescue of proliferation defect caused by ethidium bromide (HeLa Tet3G cells [1]; 30 ng/ml ethidium bromide, no pyruvate, doxycycline-inducible expression): not | rescue of proliferation defect caused by antimycin (HeLa Tet3G cells [1]; 1 μM antimycin, no pyruvate, doxycycline-inducible expression): not | rescue of proliferation defect caused by piericidin (HeLa Tet3G cells [1]; 1 μM piericidin, no pyruvate, doxycycline-inducible expression): rescued | rescue of proliferation defect caused by chloramphenicol (HeLa Tet3G cells [1]; 10 μg/ml chloramphenicol, no pyruvate, doxycycline-inducible expression): not

Source: patent US11866736B2, “Protein prostheses for mitochondrial diseases or conditions” (The General Hospital Corporation, priority 2015, dated 2024)
